Experimental data taken from paper PMC6265470, “Structural, functional and biological insights into the role of Mycobacterium tuberculosis VapBC11 toxin–antitoxin system: targeting a tRNase to tackle mycobacterial adaptation” (Nucleic Acids Research, 2018).

Assays:
[1] = target: VapC11 as co-expressed and co-purified with VapB11 in the VapBC11 complex (Mycobacterium tuberculosis) (UniProt P9WFA4); experiment: […] (pH 8.0), 150 mM NaCl, […]
[2] = tested on: VapC11 D5A (Mycobacterium tuberculosis); experiment: BLI; conditions: BLI: 20 mM HEPES pH 7.5, 150 mM NaCl, 25 C

| Substance | percent of the population as heterooctamer [1] [%] | stoichiometry N (VapB11 per VapC11 (2:4)) [1] | stoichiometry N (VapB11 per VapC11 (4:4)) [1] | Kd [2] [nM] |
| --- | --- | --- | --- | --- |
| VapB11 (residues 6-72) as co-expressed and co-purified with VapC11 in the VapBC11 complex (from UniProt P9WLU2 6-72) (domain or fragment) | 80 | 0.5 | 1 | – |
| tRNA-LeuCAG (leuT) | – | – | – | 0.5 |
